Results on 2 substances are retold here after patent US20150099790A1.

Holding throughout (assay): TAP purification of tagged bait from yeast, trypsin digestion, mass spectrometric identification of co-purified proteins
Assay [1] deals with Fmp24 (Saccharomyces cerevisiae) (UniProt Q04472).
Assay [2] has as its target Mpc3 (S. cerevisiae, encoded by YGR243W) (S. cerevisiae) (UniProt P53311).
Assay [3] deals with Gut2 (Saccharomyces cerevisiae) (UniProt P32191).
Assay [4] has as its target Mpm1 (Saccharomyces cerevisiae) (UniProt P40364).
For assay [5], the target named is Qcr2 (Saccharomyces cerevisiae) (UniProt P07257).
Qcr2 (Saccharomyces cerevisiae), sequence (P07257 17-368 limits assumed): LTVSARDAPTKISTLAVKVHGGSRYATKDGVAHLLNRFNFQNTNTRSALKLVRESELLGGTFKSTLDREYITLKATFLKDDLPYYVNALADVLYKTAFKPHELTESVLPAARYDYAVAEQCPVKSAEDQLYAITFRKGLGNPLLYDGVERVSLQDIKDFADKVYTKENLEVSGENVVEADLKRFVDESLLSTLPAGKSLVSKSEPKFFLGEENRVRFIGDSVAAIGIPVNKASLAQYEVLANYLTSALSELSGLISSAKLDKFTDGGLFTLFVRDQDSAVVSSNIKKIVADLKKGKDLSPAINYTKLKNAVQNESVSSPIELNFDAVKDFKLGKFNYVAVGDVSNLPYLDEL
Assay [6] concerns the target Cor1 (Saccharomyces cerevisiae) (UniProt P07256).
In assay [7] the target is Md12 (Saccharomyces cerevisiae) (UniProt P33311).
Md12 (Saccharomyces cerevisiae), sequence (P33311 91-773 limits assumed): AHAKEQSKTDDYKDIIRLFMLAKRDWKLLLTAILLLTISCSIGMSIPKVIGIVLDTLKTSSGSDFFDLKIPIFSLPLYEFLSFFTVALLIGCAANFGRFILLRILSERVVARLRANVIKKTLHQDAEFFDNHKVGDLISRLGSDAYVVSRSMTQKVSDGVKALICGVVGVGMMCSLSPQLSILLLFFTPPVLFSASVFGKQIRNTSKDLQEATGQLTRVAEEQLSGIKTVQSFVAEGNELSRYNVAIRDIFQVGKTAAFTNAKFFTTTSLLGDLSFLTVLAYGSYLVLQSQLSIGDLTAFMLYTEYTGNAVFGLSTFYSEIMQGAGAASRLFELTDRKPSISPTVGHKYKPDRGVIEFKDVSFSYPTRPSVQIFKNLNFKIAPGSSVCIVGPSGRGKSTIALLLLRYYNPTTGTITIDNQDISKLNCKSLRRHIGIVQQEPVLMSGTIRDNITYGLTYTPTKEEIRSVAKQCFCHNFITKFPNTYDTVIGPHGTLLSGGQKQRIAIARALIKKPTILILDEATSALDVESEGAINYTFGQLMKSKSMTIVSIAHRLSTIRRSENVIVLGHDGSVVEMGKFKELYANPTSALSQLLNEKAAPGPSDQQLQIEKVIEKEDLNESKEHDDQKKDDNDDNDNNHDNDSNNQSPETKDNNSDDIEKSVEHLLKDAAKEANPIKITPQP
Assay [8] concerns the target Nde1 (Saccharomyces cerevisiae) (UniProt P40215).

Gut2 (Saccharomyces cerevisiae), sequence (P32191 whole entry): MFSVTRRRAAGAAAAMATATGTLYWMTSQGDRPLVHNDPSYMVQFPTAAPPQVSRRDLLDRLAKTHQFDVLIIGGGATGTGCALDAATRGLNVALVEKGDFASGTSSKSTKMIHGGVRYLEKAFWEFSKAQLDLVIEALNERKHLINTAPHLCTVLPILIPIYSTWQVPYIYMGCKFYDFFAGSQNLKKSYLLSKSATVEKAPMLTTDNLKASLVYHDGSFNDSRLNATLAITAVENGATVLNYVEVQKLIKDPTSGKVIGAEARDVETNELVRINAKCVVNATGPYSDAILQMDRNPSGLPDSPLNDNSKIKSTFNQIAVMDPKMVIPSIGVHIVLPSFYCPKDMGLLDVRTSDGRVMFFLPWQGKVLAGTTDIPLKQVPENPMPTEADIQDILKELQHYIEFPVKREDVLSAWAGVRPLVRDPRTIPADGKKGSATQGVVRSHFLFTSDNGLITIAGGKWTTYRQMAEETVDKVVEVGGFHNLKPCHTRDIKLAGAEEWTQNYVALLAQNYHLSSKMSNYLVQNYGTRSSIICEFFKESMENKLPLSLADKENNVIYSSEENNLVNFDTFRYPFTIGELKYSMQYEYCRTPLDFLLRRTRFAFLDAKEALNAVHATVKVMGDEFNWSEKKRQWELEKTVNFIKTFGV
Mpm1 (Saccharomyces cerevisiae), sequence (P40364 whole entry): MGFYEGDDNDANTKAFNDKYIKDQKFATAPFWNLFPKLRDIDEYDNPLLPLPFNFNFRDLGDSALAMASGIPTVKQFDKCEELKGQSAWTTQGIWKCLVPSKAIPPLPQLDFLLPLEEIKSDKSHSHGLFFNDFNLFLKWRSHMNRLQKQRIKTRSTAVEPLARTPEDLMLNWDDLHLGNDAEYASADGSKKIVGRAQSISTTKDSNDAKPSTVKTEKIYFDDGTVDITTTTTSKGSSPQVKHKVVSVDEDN
Fmp24 (Saccharomyces cerevisiae), sequence (Q04472 whole entry): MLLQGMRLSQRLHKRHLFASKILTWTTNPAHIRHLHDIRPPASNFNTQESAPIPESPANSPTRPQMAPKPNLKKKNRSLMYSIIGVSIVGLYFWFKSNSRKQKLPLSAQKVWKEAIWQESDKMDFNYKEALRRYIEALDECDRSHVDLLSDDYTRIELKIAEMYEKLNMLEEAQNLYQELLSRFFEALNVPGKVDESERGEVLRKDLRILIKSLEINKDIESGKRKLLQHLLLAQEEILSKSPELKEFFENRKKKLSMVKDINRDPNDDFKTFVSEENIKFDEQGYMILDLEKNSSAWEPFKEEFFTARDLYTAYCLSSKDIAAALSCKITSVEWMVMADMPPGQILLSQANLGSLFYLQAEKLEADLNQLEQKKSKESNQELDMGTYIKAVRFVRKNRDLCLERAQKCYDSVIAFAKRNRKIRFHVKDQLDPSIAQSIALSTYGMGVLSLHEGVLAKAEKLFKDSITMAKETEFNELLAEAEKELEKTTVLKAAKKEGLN
Cor1 (Saccharomyces cerevisiae), sequence (P07256 27-457 limits assumed): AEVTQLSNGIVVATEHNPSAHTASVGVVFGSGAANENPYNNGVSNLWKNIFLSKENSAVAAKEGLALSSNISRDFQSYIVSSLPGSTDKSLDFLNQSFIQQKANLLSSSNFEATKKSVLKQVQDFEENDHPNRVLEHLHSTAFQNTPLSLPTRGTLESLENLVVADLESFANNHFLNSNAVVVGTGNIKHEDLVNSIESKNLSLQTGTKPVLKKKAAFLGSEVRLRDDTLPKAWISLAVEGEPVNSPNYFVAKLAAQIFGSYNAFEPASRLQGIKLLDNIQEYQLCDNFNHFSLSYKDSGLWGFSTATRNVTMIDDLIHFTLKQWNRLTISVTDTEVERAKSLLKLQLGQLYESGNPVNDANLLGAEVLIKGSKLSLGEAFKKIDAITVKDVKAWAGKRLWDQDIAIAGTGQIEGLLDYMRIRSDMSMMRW
Nde1 (Saccharomyces cerevisiae), sequence (P40215 42-560 limits assumed): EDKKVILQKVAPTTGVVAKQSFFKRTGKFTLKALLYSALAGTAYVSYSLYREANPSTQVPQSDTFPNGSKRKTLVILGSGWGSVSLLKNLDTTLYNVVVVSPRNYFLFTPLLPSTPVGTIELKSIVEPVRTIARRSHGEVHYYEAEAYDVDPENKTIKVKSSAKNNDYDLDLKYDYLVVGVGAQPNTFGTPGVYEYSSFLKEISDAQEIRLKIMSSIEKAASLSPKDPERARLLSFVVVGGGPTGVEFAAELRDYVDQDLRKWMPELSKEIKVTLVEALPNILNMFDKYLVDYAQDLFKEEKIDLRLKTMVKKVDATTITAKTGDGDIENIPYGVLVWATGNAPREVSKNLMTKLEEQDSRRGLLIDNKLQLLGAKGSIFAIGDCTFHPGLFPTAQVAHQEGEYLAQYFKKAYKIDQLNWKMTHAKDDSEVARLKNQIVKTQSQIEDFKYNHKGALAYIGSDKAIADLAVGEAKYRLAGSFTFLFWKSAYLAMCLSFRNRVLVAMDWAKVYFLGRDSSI

“Mpc1-His6/HA2 (from UniProt P53157 1-130)”: the PSMs in assay [1] came out at 4 PSMs; in assay [2], 5 PSMs; in assay [3], 7 PSMs; in assay [4], 7 PSMs.

Regarding “Mpc2, tagged variant used for TAP purification (from UniProt P38857 1-129)”, the PSMs in assay [5] is 3 PSMs; in assay [6] it was 5 PSMs; in assay [2] it was 5 PSMs; in assay [3], 4 PSMs; in assay [7], 28 PSMs; in assay [8], 6 PSMs.
